Reference: PMC6513101, “Experimentally guided computational antibody affinity maturation with de novo docking, modelling and rational design” (PLoS Computational Biology, 2019)
Positions count from the first letter of the chain named. In names and notes the source's numbering stands.

B1: AB1 alanine variant 19 (H:Y26A) (antibody, V domains shown)
VH: QVQLQQSGAELAKPGSSVKISCKAAGSSFTTNSIHWIKQTTGQALEWTGYIAPGSGGARYNEKFKGKATLTVDKSSGTAYMQLSSLTPVDTAVYYCALNIGTNPFTYWGQGTLVTVSS
VL: DIVMTQGALPNPVPSGESVSITCRSSKSLLYSDGKTYLNWYLQRPGQSPQLLIYWMSTRASGVSDRFSGSGSGTDFTLKISGVEAEDVGVYYCQQGLEFPRTFGSGTKLEIK
notes: IMGT numbering; IgG1, as m1; also called control; source: HEK293FT, transiently transfected, purified (Protein A)
B2: AB1 affinity maturation variant 9 (H:T110W) (antibody, V domains shown)
VH: B1 VH with A25Y, T102W
VL: B1 VL
notes: IMGT numbering; IgG1, as m1; source: HEK293FT, transiently transfected, purified (Protein A)
B3: AB1 alanine variant 23 (H:T35A/N107A/L:Y31A) (antibody, V domains shown)
VH: B1 VH with A25Y, T30A, N99A
VL: B1 VL with Y31A
notes: IMGT numbering; IgG1, as m1; intermediate construct; source: HEK293FT, transiently transfected, purified (Protein A)
B4: AB1 alanine variant 5 (H:Y55A, H:R66A, L:Y31A) (antibody, V domains shown)
VH: B1 VH with A25Y, Y50A, R59A
VL: B1 VL with Y31A
notes: as for B2
B5: AB1 alanine variant 16 (L:K36A) (antibody, V domains shown)
VH: B1 VH with A25Y
VL: B1 VL with K35A
notes: as for B2
B6: AB1 affinity maturation variant 11 (H:N113R) (antibody, V domains shown)
VH: B1 VH with A25Y, N103R
VL: B1 VL
notes: as for B2
B7: AB1 affinity maturation variant 8 (H:I108R) (antibody, V domains shown)
VH: B1 VH with A25Y, I100R
VL: B1 VL
notes: as for B2
B8: AB1 alanine variant 22 (L:Y31A/D34A) (antibody, V domains shown)
VH: B1 VH with A25Y
VL: B1 VL with Y31A, D33A
notes: as for B3
B9: AB1 alanine variant 14 (L:Y31A) (antibody, V domains shown)
VH: B1 VH with A25Y
VL: B1 VL with Y31A
notes: as for B2
B10: AB1 alanine variant 20 (L:S26A) (antibody, V domains shown)
VH: B1 VH with A25Y
VL: B1 VL with S26A
notes: as for B1
B11: AB1 affinity maturation variant 20 (L:Q106Y) (antibody, V domains shown)
VH: B1 VH with A25Y
VL: B1 VL with Q95Y
notes: IMGT numbering; IgG1, as m1; also called neutral control mutation; source: HEK293FT, transiently transfected, purified (Protein A)
B12: AB1 alanine variant 21 (L:Y31A/Y38A) (antibody, V domains shown)
VH: B1 VH with A25Y
VL: B1 VL with Y31A, Y37A
notes: as for B3
B13: AB1 affinity maturation variant 15 (L:D34Q) (antibody, V domains shown)
VH: B1 VH with A25Y
VL: B1 VL with D33Q
notes: as for B2
B14: AB1 affinity maturation variant 14 (L:S32D) (antibody, V domains shown)
VH: B1 VH with A25Y
VL: B1 VL with S32D
notes: as for B2
B15: AB1 alanine variant 2 (H:T35A) (antibody, V domains shown)
VH: B1 VH with A25Y, T30A
VL: B1 VL
notes: as for B2
B16: AB1 affinity maturation variant 4 (H:N37T) (antibody, V domains shown)
VH: B1 VH with A25Y, N32T
VL: B1 VL
notes: as for B2
B17: AB1 alanine variant 4 (H:N113A) (antibody, V domains shown)
VH: B1 VH with A25Y, N103A
VL: B1 VL
notes: as for B2
B18: AB1 affinity maturation variant 3 (H:T36Q) (antibody, V domains shown)
VH: B1 VH with A25Y, T31Q
VL: B1 VL
notes: as for B2
B19: AB1 affinity maturation variant 10 (H:T110F) (antibody, V domains shown)
VH: B1 VH with A25Y, T102F
VL: B1 VL
notes: as for B2
B20: AB1 affinity maturation variant 2 (H:S29D) (antibody, V domains shown)
VH: B1 VH with A25Y, S28D
VL: B1 VL
notes: as for B2
B21: AB1 affinity maturation variant 19 (L:F114R) (antibody, V domains shown)
VH: B1 VH with A25Y
VL: B1 VL with F99R
notes: as for B2
B22: AB1 affinity maturation variant 6 (H:G64T) (antibody, V domains shown)
VH: B1 VH with A25Y, G57T
VL: B1 VL
notes: as for B2
B23: AB1 alanine variant 10 (H:S28A) (antibody, V domains shown)
VH: B1 VH with A25Y, S27A
VL: B1 VL
notes: as for B2
B24: AB1 alanine variant 18 (L:R116A) (antibody, V domains shown)
VH: B1 VH with A25Y
VL: B1 VL with R101A
notes: as for B2
B25: AB1 affinity maturation variant 18 (L:Y38R) (antibody, V domains shown)
VH: B1 VH with A25Y
VL: B1 VL with Y37R
notes: as for B2
B26: AB1 affinity maturation variant 7 (H:A65Y) (antibody, V domains shown)
VH: B1 VH with A25Y, A58Y
VL: B1 VL
notes: as for B2
B27: AB1 affinity maturation variant 13 (H:T116R) (antibody, V domains shown)
VH: B1 VH with A25Y, T106R
VL: B1 VL
notes: as for B2
B28: AB1 affinity maturation variant 17 (L:K36R) (antibody, V domains shown)
VH: B1 VH with A25Y
VL: B1 VL with K35R
notes: as for B2
B29: AB1 affinity maturation variant 12 (H:F115H) (antibody, V domains shown)
VH: B1 VH with A25Y, F105H
VL: B1 VL
notes: as for B2
B30: AB1 alanine variant 1 (H:S29A) (antibody, V domains shown)
VH: B1 VH with A25Y, S28A
VL: B1 VL
notes: as for B2
B31: AB1 alanine variant 3 (H:R66A) (antibody, V domains shown)
VH: B1 VH with A25Y, R59A
VL: B1 VL
notes: as for B2
B32: AB1 alanine variant 13 (H:T110A) (antibody, V domains shown)
VH: B1 VH with A25Y, T102A
VL: B1 VL
notes: as for B2
B33: AB1 affinity maturation variant 5 (H:G59Y) (antibody, V domains shown)
VH: B1 VH with A25Y, G54Y
VL: B1 VL
notes: as for B2

Target: T1, biotinylated murine CCL20 (Mus musculus, UniProt O89093, biotin)
T1 construct: CCL20, mouse; recombinant; m2 with biotin; also called biotinylated muCCL20; muCCL20 antigen; source: in-house, standard mammalian cell expression; biotinylated
Assay: ELISA; capture ELISA: plate-coated anti-mouse Fc antibody (1 ug/mL) captures the antibody variant (5 ug/mL); biotinylated muCCL20 titrated from 0 to 600 nM, 1 h
Conditions: both partners purified

binding result | fold reduction of binding affinity against WT AB1 [fold] | Binder
binds |  | B1
binds |  | B2
no binding (tested: 600 nM) |  | B3
binds |  | B4
 | 3 | B5
binds |  | B6
binds |  | B7
no binding (tested: 600 nM) |  | B8
binds |  | B9
binds |  | B10
binds |  | B11
no binding (tested: 600 nM) |  | B12
binds |  | B13
binds |  | B14
binds |  | B15
binds |  | B16
no binding (tested: 600 nM) |  | B17

binding result | fold reduction of binding affinity against WT AB1 [fold] | Binder
binds |  | B18
binds |  | B19
binds |  | B20
binds |  | B21
binds |  | B22
binds |  | B23
binds |  | B24
binds |  | B25
binds |  | B26
binds |  | B27
binds |  | B28
binds |  | B29
binds |  | B30
binds |  | B31
binds |  | B32
binds |  | B33
